{"source": "the supplement of paper PMC11246515", "test": "total protein half-life in vivo (active degradation + dilution); higher = more stable protein", "key": {"[1]": {"settings": "E. coli NCM3722 delta-clpP delta-lon delta-hslV, growth: N-lim chemostat, doubling time 6 h"}, "[2]": {"settings": "E. coli NCM3722 delta-clpP, growth: N-lim chemostat, doubling time 6 h"}, "[3]": {"settings": "E. coli NCM3722 delta-hslV, growth: N-lim chemostat, doubling time 6 h"}, "[4]": {"settings": "E. coli NCM3722 delta-lon, growth: N-lim chemostat, doubling time 6 h"}, "[5]": {"settings": "E. coli NCM3722 delta-smpB, growth: N-lim chemostat, doubling time 6 h"}, "[6]": {"settings": "wild type E. coli NCM3722, growth: C-lim chemostat, doubling time 3 h"}, "[7]": {"settings": "wild type E. coli NCM3722, growth: C-lim chemostat, doubling time 6 h"}, "[8]": {"settings": "wild type E. coli NCM3722, growth: C-lim chemostat, doubling time 12 h"}, "[9]": {"settings": "wild type E. coli NCM3722, growth: N-lim chemostat, doubling time 6 h"}, "[10]": {"settings": "wild type E. coli NCM3722, growth: N-lim chemostat, doubling time 12 h"}, "[11]": {"settings": "wild type E. coli NCM3722, growth: P-lim chemostat, doubling time 6 h"}, "[12]": {"settings": "wild type E. coli NCM3722, growth: P-lim chemostat, doubling time 12 h"}}, "note": "± gives the standard deviation of the averaged measurements.", "data": [{"sequence": "MSKGTTSQDAPFGTLLGYAPGGVAIYSSDYSSLDPQEYEDDAVFRSYIDDEYMGHKWQCVEFARRFLFLNYGVVFTDVGMAWEIFSLRFLREVVNDNILPLQAFPNGSPRAPVAGALLIWDKGGEFKDTGHVAIITQLHGNKVRIAEQNVIHSPLPQGQQWTRELEMVVENGCYTLKDTFDDTTILGWMIQTEDTEYSLPQPEIAGELLKISGARLENKGQFDGKWLDEKDPLQNAYVQANGQVINQDPYHYYTITESAEQELIKATNELHLMYLHATDKVLKDDNLLALFDIPKILWPRLRLSWQRRRHHMITGRMDFCMDERGLKVYEYNADSASCHTEAGLILERWAEQGYKGNGFNPAEGLINELAGAWKHSRARPFVHIMQDKDIEENYHAQFMEQALHQAGFETRILRGLDELGWDAAGQLIDGEGRLVNCVWKTWAWETAFDQIREVSDREFAAVPIRTGHPQNEVRLIDVLLRPEVLVFEPLWTVIPGNKAILPILWSLFPHHRYLLDTDFTVNDELVKTGYAVKPIAGRCGSNIDLVSHHEEVLDKTSGKFAEQKNIYQQLWCLPKVDGKYIQVCTFTVGGNYGGTCLRGDESLVIKKESDIEPLIVVKK [P0AES0]", "values": [{"measurement": "total protein half-life in vivo", "setting": "[1]", "result": "5 ± 0.066", "unit": "h"}, {"measurement": "total protein half-life in vivo", "setting": "[2]", "result": "4.62 ± 0.17", "unit": "h"}, {"measurement": "total protein half-life in vivo", "setting": "[3]", "result": "4.62 ± 0.18", "unit": "h"}, {"measurement": "total protein half-life in vivo", "setting": "[4]", "result": "6.12 ± 1.3", "unit": "h"}, {"measurement": "total protein half-life in vivo", "setting": "[5]", "result": "4.58 ± 0.23", "unit": "h"}, {"measurement": "total protein half-life in vivo", "setting": "[6]", "result": "3 ± 0.4", "unit": "h"}, {"measurement": "total protein half-life in vivo", "setting": "[7]", "result": "5.17 ± 0.38", "unit": "h"}, {"measurement": "total protein half-life in vivo", "setting": "[8]", "result": "10.6 ± 0.36", "unit": "h"}, {"measurement": "total protein half-life in vivo", "setting": "[9]", "result": "4.645 ± 0.024", "unit": "h"}, {"measurement": "total protein half-life in vivo", "setting": "[10]", "result": "8.42 ± 0.4", "unit": "h"}, {"measurement": "total protein half-life in vivo", "setting": "[11]", "result": "5.85 ± 0.5", "unit": "h"}, {"measurement": "total protein half-life in vivo", "setting": "[12]", "result": "11.2 ± 0.72", "unit": "h"}]}, {"sequence": "MSKIIATLYAVMDKRPLRALSFVMALLLAGCMFWDPSRFAAKTSELEIWHGLLLMWAVCAGVIHGVGFRPQKVLWQGIFCPLLADIVLIVGLIFFFF [P0AAV0]", "values": [{"measurement": "total protein half-life in vivo", "setting": "[4]", "result": 5.39, "unit": "h"}]}, {"sequence": "MSKIRVLSVDDSALMRQIMTEIINSHSDMEMVATAPDPLVARDLIKKFNPDVLTLDVEMPRMDGLDFLEKLMRLRPMPVVMVSSLTGKGSEVTLRALELGAIDFVTKPQLGIREGMLAYNEMIAEKVRTAAKASLAAHKPLSAPTTLKAGPLLSSEKLIAIGASTGGTEAIRHVLQPLPLSSPALLITQHMPPGFTRSFADRLNKLCQIGVKEAEDGERVLPGHAYIAPGDRHMELSRSGANYQIKIHDGPAVNRHRPSVDVLFHSVAKQAGRNAVGVILTGMGNDGAAGMLAMRQAGAWTLAQNEASCVVFGMPREAINMGGVCEVVDLSQVSQQMLAKISAGQAIRI", "values": [{"measurement": "total protein half-life in vivo", "setting": "[1]", "result": 4.85, "unit": "h"}, {"measurement": "total protein half-life in vivo", "setting": "[6]", "result": "2.09 ± 0.19", "unit": "h"}, {"measurement": "total protein half-life in vivo", "setting": "[7]", "result": "3.21 ± 0.2", "unit": "h"}, {"measurement": "total protein half-life in vivo", "setting": "[8]", "result": "5.6 ± 0.28", "unit": "h"}, {"measurement": "total protein half-life in vivo", "setting": "[12]", "result": 9.95, "unit": "h"}]}, {"sequence": "MSKISDLNYSQHITLADNFKQKSEVLNTWRVGMNDFARIAGGQDNRRNILSPGAFLEFLAKIFTLGYVDFSKRSNEAGRNMMAHIKSSSYSKDTNGNEKMKFYMNNPVGERADSPKVIIEISLSTITTMGTRQGHTAIIFPQPDGSTNRYEGKSFERKDESSLHLITNKVLACYQSEANKKIARLLNNNQELNNLQKLNNLQKLNNLLKLNNIQGLNNPQELNNPQNLNDSQELNNSQELNSPQELNDPQELNNSQDLNNSKVSCTVSVDSTITGLLKEPLNNALLAIRNEHLLLMPHVCDESISYLLGEKGILEEIDKLYALNDHGIDNDKVGNNEINDIKVNLSHILIDSLDDAKVNLTPVIDSILETFSKSPYINDVRILDWCFNKSMQYFDDTKKIKHACSVINHINLRSDQSKIAETLFFNLDKEPYKNSPELQGLIWNKLVVYVNEFNLSNREKTNLIQRLFDNVESIFNEVPVSILVNDIFMNDFFMKNPEMINWYFPQLLKSYEGEKIYFDNLKYDLNDNDKESNKEILKNQPDNVIKEKLNNEYKLRFRMMQTILQSRVNVLPYINEQRLNKLNPPENLRIAIEHFGWKNRPITA", "values": [{"measurement": "total protein half-life in vivo", "setting": "[1]", "result": 5.05, "unit": "h"}, {"measurement": "total protein half-life in vivo", "setting": "[2]", "result": "4.13 ± 0.42", "unit": "h"}, {"measurement": "total protein half-life in vivo", "setting": "[3]", "result": 4.07, "unit": "h"}, {"measurement": "total protein half-life in vivo", "setting": "[4]", "result": 3.78, "unit": "h"}, {"measurement": "total protein half-life in vivo", "setting": "[6]", "result": 1.27, "unit": "h"}, {"measurement": "total protein half-life in vivo", "setting": "[7]", "result": "3.95 ± 2.7", "unit": "h"}, {"measurement": "total protein half-life in vivo", "setting": "[8]", "result": 8.85, "unit": "h"}, {"measurement": "total protein half-life in vivo", "setting": "[11]", "result": 2.71, "unit": "h"}, {"measurement": "total protein half-life in vivo", "setting": "[12]", "result": "2.84 ± 1.1", "unit": "h"}]}, {"sequence": "MSKKIVLALGGNALGDDLAGQMKAVKITSQAIVDLIAQGHEVIVTHGNGPQVGMINQAFEAAAKTEAHSPMLPMSVCVALSQGYIGYDLQNALREELLSRGINKPVATLVTQVEVDANDPAFLNPTKPIGSFFTEQEAEQLTKQGYTLKEDAGRGYRRVVASPKPVDIIEKETVKALVDAGQVVITVGGGGIPVIREGNHLRGASAVIDKDWASARLAEMIDADMLIILTAVEKVAINFGKENEQWLDRLSLSDAERFIEEGHFAKGSMLPKVEAAASFARSRAGREALITVLSKAKEGIEGKTGTVICQ", "values": [{"measurement": "total protein half-life in vivo", "setting": "[1]", "result": 3.53, "unit": "h"}, {"measurement": "total protein half-life in vivo", "setting": "[3]", "result": "> 8", "unit": "h"}, {"measurement": "total protein half-life in vivo", "setting": "[5]", "result": 2.48, "unit": "h"}, {"measurement": "total protein half-life in vivo", "setting": "[6]", "result": "2.84 ± 0.39", "unit": "h"}, {"measurement": "total protein half-life in vivo", "setting": "[7]", "result": 3.92, "unit": "h"}, {"measurement": "total protein half-life in vivo", "setting": "[8]", "result": "6.22 ± 1.5", "unit": "h"}, {"measurement": "total protein half-life in vivo", "setting": "[9]", "result": 2.66, "unit": "h"}, {"measurement": "total protein half-life in vivo", "setting": "[11]", "result": 3.03, "unit": "h"}, {"measurement": "total protein half-life in vivo", "setting": "[12]", "result": "5.27 ± 1.5", "unit": "h"}]}, {"sequence": "MSKKLIALCACPMGLAHTFMAAQALEEAAVEAGYEVKIETQGADGIQNRLTAQDIAEATIIIHSVAVTPEDNERFESRDVYEITLQDAIKNAAGIIKEIEEMIASEQQ", "values": [{"measurement": "total protein half-life in vivo", "setting": "[1]", "result": "4.54 ± 0.89", "unit": "h"}, {"measurement": "total protein half-life in vivo", "setting": "[6]", "result": "2.27 ± 0.1", "unit": "h"}, {"measurement": "total protein half-life in vivo", "setting": "[7]", "result": "4.02 ± 0.38", "unit": "h"}, {"measurement": "total protein half-life in vivo", "setting": "[8]", "result": "5.83 ± 0.31", "unit": "h"}]}, {"sequence": "MSKLDLNALNELPKVDRILALAETNAELEKLDAEGRVAWALDNLPGEYVLSSSFGIQAAVSLHLVNQIRPDIPVILTDTGYLFPETYRFIDELTDKLKLNLKVYRATESAAWQEARYGKLWEQGVEGIEKYNDINKVEPMNRALKELNAQTWFAGLRREQSGSRANLPVLAIQRGVFKVLPIIDWDNRTIYQYLQKHGLKYHPLWDEGYLSVGDTHTTRKWEPGMAEEETRFFGLKRECGLHEG", "values": [{"measurement": "total protein half-life in vivo", "setting": "[1]", "result": "4.38 ± 0.8", "unit": "h"}, {"measurement": "total protein half-life in vivo", "setting": "[2]", "result": "4.21 ± 0.56", "unit": "h"}, {"measurement": "total protein half-life in vivo", "setting": "[3]", "result": "1.29 ± 0.27", "unit": "h"}, {"measurement": "total protein half-life in vivo", "setting": "[4]", "result": "1.64 ± 0.023", "unit": "h"}, {"measurement": "total protein half-life in vivo", "setting": "[5]", "result": "1.37 ± 0.087", "unit": "h"}, {"measurement": "total protein half-life in vivo", "setting": "[6]", "result": "2.11 ± 0.095", "unit": "h"}, {"measurement": "total protein half-life in vivo", "setting": "[7]", "result": "2.91 ± 0.58", "unit": "h"}, {"measurement": "total protein half-life in vivo", "setting": "[8]", "result": "4.05 ± 0.29", "unit": "h"}, {"measurement": "total protein half-life in vivo", "setting": "[9]", "result": "1.47 ± 0.077", "unit": "h"}, {"measurement": "total protein half-life in vivo", "setting": "[10]", "result": "1.721 ± 0.012", "unit": "h"}, {"measurement": "total protein half-life in vivo", "setting": "[11]", "result": "3.28 ± 0.37", "unit": "h"}, {"measurement": "total protein half-life in vivo", "setting": "[12]", "result": "6.15 ± 0.27", "unit": "h"}]}, {"sequence": "MSKLDTFIQHAVNAVPVSGTSLISSLYGDSLSHRGGEIWLGSLAALLEGLGFGERFVRTALFRLNKEGWLDVSRIGRRSFYSLSDKGLRLTRRAESKIYRAEQPAWDGKWLLLLSEGLDKSTLADVKKQLIWQGFGALAPSLMASPSQKLADVQTLLHEAGVADNVICFEAQIPLALSRAALRARVEECWHLTEQNAMYETFIQSFRPLVPLLKEAADELTPERAFHIQLLLIHFYRRVVLKDPLLPEELLPAHWAGHTARQLCINIYQRVAPAALAFVSEKGETSVGELPAPGSLYFQRFGGLNIEQEALCQFIR", "values": [{"measurement": "total protein half-life in vivo", "setting": "[3]", "result": "4.03 ± 0.075", "unit": "h"}, {"measurement": "total protein half-life in vivo", "setting": "[4]", "result": "4.2 ± 0.044", "unit": "h"}, {"measurement": "total protein half-life in vivo", "setting": "[5]", "result": "4.07 ± 0.076", "unit": "h"}, {"measurement": "total protein half-life in vivo", "setting": "[6]", "result": "2.77 ± 0.17", "unit": "h"}, {"measurement": "total protein half-life in vivo", "setting": "[7]", "result": "5.07 ± 0.31", "unit": "h"}, {"measurement": "total protein half-life in vivo", "setting": "[8]", "result": "8.39 ± 0.13", "unit": "h"}, {"measurement": "total protein half-life in vivo", "setting": "[9]", "result": "4.07 ± 0.22", "unit": "h"}, {"measurement": "total protein half-life in vivo", "setting": "[10]", "result": "6.84 ± 0.13", "unit": "h"}, {"measurement": "total protein half-life in vivo", "setting": "[11]", "result": "4.82 ± 0.088", "unit": "h"}, {"measurement": "total protein half-life in vivo", "setting": "[12]", "result": "8.96 ± 0.47", "unit": "h"}]}]}
